Source: US5990094A, “Inhibitors of sorotonin N-acetyltransferase” (The Rockefeller University, priority 1998, dated 1999)

Key:
Assay in all cases: purified protein, by the assay type
[1] = substrate: CC(=O)SCCNC(=O)CCNC(=O)[C@H](O)C(C)(C)COP(=O)(O)OP(=O)(O)OC[C@H]1O[C@@H](n2cnc3c(N)ncnc32)[C@H](O)[C@@H]1OP(=O)(O)O
[2] = substrate: NCCc1c[nH]c2ccc(O)cc12
[3] = substrate: NCCc1c[nH]c2ccccc12
[4] = substrate: CC(N)Cc1c[nH]c2ccccc12; settings: other: Table 1, tryptamine analogs
[5] = substrate: CNCCc1c[nH]c2ccccc12; settings: other: Table 1, tryptamine analogs
[6] = other: 1 mM (near saturating) concentration of the fixed substrate, GST-AANAT
[7] = other: ionic strength I~0.1, GST-AANAT
[8] = other: Table 1, tryptamine analogs

B1: GST-AANAT fusion (Ovis aries) (protein)
chain: MSTPSVHCLKPSPLHLPSGIPGSPGRQRRHTLPANEFRCLTPEDAAGVFEIEREAFISVSGNCPLNLDEVQHFLTLCPELSLGWFVEGRLVAFIIGSLWDEERLTQESLALHRPRGHSAHLHALAVHRSFRQQGKGSVLLWRYLHHVGAQPAVRRAVLMCEDALVPFYQRFGFHPAGPCAIVVGSLTFTEMHCSLRGHAALRRNSDR
Km [1, 6]: 289 µM | Km [1, 7]: 100 µM | Km [2, 6]: 241 µM | Km [3, 7]: 100 µM

B2: AANAT (Ovis aries) (protein)
chain: B1 chain
Km [4]: 2700 µM | Km [5]: 3800 µM | Km [2, 8]: 240 µM | Km [3, 8]: 170 µM

B3: unmodified AANAT (Ovis aries) (protein)
chain: B1 chain
Km ([1]; other: 1 mM (near saturating) concentration of the fixed substrate, AANAT): 178 µM
